Measured values published in article PMC7870652, “Single-molecule force spectroscopy reveals the dynamic strength of the hair-cell tip-link connection” (Nature Communications, 2021).

Key:
[1] = biological target: T1, single-bond CDH23 fusion protein (EC1-5/EC3-5 Fc heterodimer with one EC1-2 binding domain) (mouse, SNAPtag coupled to a benzylguanine DNA tether); experiment: single-molecule force spectroscopy (dual-beam optical tweezers); each protein held on a streptavidin-coated silica bead through a DNA tether on its SNAPtag (R113G proteins and fast loading rates: biotinylated directly with BG-Biotin); room temperature, TBS-TB + Ca^2+ buffer (20 mM Tris, 125 mM NaCl, pH 7.4, 0.02% Tween-20, blocking reagent), 2 mM Ca^2+; loading rates 0.39-377.8 pN s^−1; constants from fits of the …; conditions: both partners purified
T1 construct: signal peptide in the construct (native; its cleavage on secretion was confirmed); cadherin-23, mouse, EC1-5; signal peptide in the construct (native, preserved by the deletion); cadherin-23, mouse, the EC1-5 construct (base pairs 408-2066 of NM_023370) from which amino acids 25-228 (EC1-2) were deleted, leaving EC3-5; 408-2066 is 1659 bp (553 codons), probably residues 1-553 of the precursor; …

[2] = biological target: T2, dimeric full-ectodomain CDH23 fusion protein (mouse, UniProt Q99PF4 24-3064, SNAPtag coupled to a benzylguanine DNA tether or BG-Biotin (force spectroscopy), or to a benzylguanine-PEG15-biotin linker (biolayer interferometry)); experiment: BLI; CDH23 biotinylated on its SNAPtag and immobilised on streptavidin-coated PEG-biotin aminopropylsilane sensors; 10–300 nM PCDH15 in solution; TBS-Tween + Ca^2+ buffer, 2 mM Ca^2+; traces of a drift sensor and of PCDH15 lacking EC1-2 subtracted; dissociation fitted with a single exponential; on-rates measured at 300 nM PCDH15 (effective on-rate); Octet Red384; conditions: both partners purified
T2 construct: cadherin-23, mouse, the entire extracellular domain up to the last hydrophilic amino acid before the transmembrane domain (27 EC domains); The two halves carry opposing Fc heterodimerisation domains and the same cadherin ectodomain; also called full-length dimer; CDH23 dimer; source: HEK Expi293 cells, co-transfected, secreted; purified (Ni-NTA or TALON, size-exclusion on Superose 6 Increase)
T2 sequence (Q99PF4 24-3064): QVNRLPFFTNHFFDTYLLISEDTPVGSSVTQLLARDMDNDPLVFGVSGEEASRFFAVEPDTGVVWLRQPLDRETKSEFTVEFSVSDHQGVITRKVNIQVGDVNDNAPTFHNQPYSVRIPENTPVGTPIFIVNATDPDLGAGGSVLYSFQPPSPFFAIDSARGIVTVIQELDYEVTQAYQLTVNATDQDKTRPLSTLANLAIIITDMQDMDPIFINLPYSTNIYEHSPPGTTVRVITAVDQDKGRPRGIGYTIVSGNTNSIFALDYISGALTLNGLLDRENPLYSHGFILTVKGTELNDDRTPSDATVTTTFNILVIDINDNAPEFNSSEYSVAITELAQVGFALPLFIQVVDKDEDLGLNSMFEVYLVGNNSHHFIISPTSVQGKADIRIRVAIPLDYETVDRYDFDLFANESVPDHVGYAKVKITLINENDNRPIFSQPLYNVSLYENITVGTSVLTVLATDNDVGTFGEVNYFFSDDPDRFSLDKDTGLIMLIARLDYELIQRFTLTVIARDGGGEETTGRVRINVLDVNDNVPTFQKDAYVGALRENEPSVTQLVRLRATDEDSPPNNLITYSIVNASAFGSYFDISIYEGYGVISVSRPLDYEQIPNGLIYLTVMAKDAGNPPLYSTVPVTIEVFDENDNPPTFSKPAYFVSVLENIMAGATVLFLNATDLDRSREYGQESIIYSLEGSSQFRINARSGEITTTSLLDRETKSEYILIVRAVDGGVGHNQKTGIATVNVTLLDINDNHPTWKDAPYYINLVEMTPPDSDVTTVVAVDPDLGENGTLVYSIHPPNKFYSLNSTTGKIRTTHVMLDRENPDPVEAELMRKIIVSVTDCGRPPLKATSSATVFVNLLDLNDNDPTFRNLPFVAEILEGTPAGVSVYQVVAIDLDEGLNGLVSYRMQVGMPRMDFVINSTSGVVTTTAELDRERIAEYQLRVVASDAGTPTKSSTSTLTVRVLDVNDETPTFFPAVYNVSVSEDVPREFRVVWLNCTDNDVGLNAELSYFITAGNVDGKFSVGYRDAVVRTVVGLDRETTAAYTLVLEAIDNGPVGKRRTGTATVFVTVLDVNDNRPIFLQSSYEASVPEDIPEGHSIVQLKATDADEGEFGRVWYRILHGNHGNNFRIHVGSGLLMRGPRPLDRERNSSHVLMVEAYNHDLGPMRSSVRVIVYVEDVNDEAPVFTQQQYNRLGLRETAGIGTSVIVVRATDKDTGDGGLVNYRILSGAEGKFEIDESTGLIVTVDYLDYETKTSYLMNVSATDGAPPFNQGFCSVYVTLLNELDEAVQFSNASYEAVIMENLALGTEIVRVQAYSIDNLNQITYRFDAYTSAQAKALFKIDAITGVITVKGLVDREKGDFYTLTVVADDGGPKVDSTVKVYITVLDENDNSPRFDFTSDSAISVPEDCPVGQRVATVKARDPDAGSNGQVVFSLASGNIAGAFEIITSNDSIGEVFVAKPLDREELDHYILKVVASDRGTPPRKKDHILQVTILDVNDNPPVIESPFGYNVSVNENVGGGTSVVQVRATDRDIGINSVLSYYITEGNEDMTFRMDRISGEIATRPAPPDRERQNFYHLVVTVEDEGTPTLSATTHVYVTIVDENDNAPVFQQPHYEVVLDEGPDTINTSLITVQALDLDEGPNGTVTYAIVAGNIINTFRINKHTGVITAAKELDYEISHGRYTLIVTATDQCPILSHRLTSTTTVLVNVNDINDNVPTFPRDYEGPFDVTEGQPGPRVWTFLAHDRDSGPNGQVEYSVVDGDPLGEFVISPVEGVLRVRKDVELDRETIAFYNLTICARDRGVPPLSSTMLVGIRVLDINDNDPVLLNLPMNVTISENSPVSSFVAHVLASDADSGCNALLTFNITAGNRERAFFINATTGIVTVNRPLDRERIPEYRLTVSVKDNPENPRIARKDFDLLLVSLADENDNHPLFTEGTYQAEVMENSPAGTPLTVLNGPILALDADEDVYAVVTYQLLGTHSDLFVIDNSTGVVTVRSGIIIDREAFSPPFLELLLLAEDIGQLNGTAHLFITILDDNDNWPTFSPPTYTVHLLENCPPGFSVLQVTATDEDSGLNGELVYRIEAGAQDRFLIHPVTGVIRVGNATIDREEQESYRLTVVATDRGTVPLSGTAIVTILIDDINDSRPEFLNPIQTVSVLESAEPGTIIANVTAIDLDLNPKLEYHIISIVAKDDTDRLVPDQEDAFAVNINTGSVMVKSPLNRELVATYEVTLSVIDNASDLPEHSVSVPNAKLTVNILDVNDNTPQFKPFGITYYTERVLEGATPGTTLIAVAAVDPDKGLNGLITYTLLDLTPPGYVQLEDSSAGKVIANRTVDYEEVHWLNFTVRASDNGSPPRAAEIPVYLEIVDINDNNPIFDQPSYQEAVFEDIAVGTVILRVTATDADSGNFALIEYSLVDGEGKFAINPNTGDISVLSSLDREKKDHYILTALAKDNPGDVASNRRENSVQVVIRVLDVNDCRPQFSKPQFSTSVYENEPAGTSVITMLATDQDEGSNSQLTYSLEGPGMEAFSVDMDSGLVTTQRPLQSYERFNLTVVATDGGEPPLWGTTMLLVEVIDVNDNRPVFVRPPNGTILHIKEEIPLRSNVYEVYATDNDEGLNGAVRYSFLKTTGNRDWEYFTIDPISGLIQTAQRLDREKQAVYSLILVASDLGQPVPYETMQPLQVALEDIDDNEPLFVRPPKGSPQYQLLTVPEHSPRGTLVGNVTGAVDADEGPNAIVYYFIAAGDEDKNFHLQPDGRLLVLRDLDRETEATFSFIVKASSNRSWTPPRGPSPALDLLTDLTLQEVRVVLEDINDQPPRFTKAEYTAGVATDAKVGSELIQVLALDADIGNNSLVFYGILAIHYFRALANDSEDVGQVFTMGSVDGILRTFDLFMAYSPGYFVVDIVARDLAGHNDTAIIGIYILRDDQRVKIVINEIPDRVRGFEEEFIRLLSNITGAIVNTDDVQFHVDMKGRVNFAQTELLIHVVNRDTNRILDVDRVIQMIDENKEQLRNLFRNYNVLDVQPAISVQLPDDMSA

B1: single-bond PCDH15 fusion protein (EC1-5/EC3-5 Fc heterodimer with one EC1-2 binding domain) (Fc fusion)
chain 1: not shown
chain 2: QGDDLGPMFLPCVLVPNTRDCRPLTYQAAIPELRTPEELNPILVTPPIQAIDQDRNIQPPSDRPGILYSILVGTPEDYPRFFHMHPRTAELTLLEPVNRDFHQKFDLVIKAEQDNGHPLPAFASLHIEILDENNQSPYFTMPSYQGYILESAPVGATISESLNLTTPLRIVALDKDIEDTKDPELHLFLNDYTSVFTVTPTGITRYLTLLQPVDREEQQTYTFLITAFDGVQESEPVVVNIRVMDANDNTPTFPEISYDVYVYTDMSPGDSVIQLTAVDADEGSNGEISYEILVGGKGDFVINKTTGLVSIAPGVELIVGQTYALTVQASDNAPPAERRHSICTVYIEVLPPNNQ
modifications: SNAPtag coupled to a benzylguanine DNA tether
koff [1]: 0.5 ± 0.1 s⁻¹

B2: dimeric full-ectodomain PCDH15 fusion protein (Fc fusion)
chain: not shown
modifications: SNAPtag coupled to a benzylguanine DNA tether, or to BG-Biotin in some force-spectroscopy conditions
notes: protocadherin-15, mouse, the entire extracellular domain up to the last hydrophilic amino acid before the transmembrane domain (11 EC domains); The two halves carry opposing Fc heterodimerisation domains and the same cadherin ectodomain; also called full-length dimer; full-ectodomain mouse PCDH15; source: HEK Expi293 cells, co-transfected, secreted; purified (Ni-NTA or TALON, size-exclusion on …)
kon [2]: 350000 M⁻¹ s⁻¹

B3: dimeric full-ectodomain PCDH15 R113G^+/+ fusion protein (both strands mutated) (Fc fusion)
chain: not shown
modifications: SNAPtag coupled to BG-Biotin (force spectroscopy without the DNA tether)
notes: A human hereditary deafness mutation put into the mouse protein by site-directed mutagenesis; also called homozygous R113G^+/+; source: HEK Expi293 cells, co-transfected, secreted; purified (Ni-NTA or TALON, size-exclusion on Superose 6 Increase)
mean lifetime of the connection at zero force [2]: 37 s
